Assay [1] deals with T1, Human OSM (human, UniProt P13725 26-221).
T1 construct: Recombinant human OSM; also called hOSM; human Oncostatin M
T1 sequence: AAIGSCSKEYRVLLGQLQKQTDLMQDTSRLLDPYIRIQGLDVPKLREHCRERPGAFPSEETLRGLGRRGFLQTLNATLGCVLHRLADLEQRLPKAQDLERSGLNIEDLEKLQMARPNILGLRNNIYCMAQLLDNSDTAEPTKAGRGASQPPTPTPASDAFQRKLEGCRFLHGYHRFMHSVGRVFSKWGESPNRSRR
Put plainly: human gp130 ELISA, inhibition of OSM binding to gp130. A general note: An ELISA detects its analyte on a solid surface through an enzyme-linked reagent.

The target in assay [2] is T2, Cynomolgus OSM (cynomolgus, UniProt A0A2K5VPC6 26-221).
T2 construct: also called Cyno OSM; cynomolgus macaque OSM
T2 sequence: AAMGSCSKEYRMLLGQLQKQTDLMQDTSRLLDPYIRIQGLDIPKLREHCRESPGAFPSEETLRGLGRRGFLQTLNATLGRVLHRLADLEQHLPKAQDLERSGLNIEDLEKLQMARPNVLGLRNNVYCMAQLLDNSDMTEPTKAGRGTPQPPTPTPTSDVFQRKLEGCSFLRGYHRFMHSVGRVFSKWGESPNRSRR
The assay is described as above.

For assay [3], the target named is T1, Human OSM. Description: BIAcore kinetics. Background: SPR reads the build-up and loss of mass on a sensor chip optically.
In assay [4] the target is T2, Cynomolgus OSM. Description: BIAcore kinetics.
In assay [5] the target is T1, Human OSM. Description: cell-based or functional assay.
The target of assay [6] is T2, Cynomolgus OSM. Description: cell-based or functional assay.
In assay [7] the target is T1, Human OSM. Description: SPR (ProteOn XPR36 or Biacore T100), captured supernatant, OSM as analyte; hatched cell: separate experiment. The procedure:
The initial kinetic analyses for the CDRH3 screen were carried out on the ProteOn XPR36 (Biorad Laboratories) and certain supernatants were selected for more accurate kinetic analysis on the BiaCore T100.
For the ProteOn analysis, anti-human IgG (GE Healthcare/Biacore BR-1008-39) was coupled to a GLM chip (Biorad Laboratories 176-5012) by primary amine coupling. The CDRH3 variants were captured directly on to this surface and recombinant human OSM was passed over the captured antibody surface at 256, 64, 16, 4 and 1 nM, with a buffer injection alone (i.e. 0 nM) used to double reference the binding curves. Following the OSM binding event, the capture surfaces were regenerated: with 3M MgCl₂ the regeneration removed the previously captured antibody ready for another cycle of capture and binding analysis. The data was then fitted to the 1:1 model (with mass transport) inherent to the ProteOn analysis software. The run was carried out using HBS-EP (Biacore/GE-Healthcare BR-1006-69) and the analysis temperature was 25° C.
A similar method was used for analysis of constructs using the Biacore T100, anti-human IgG (GE Healthcare/Biacore BR-1008-39) was coupled to a CM5 chip (GE Healthcare/Biacore BR-1006-68) by primary amine coupling, antibodies were captured on this surface and recombinant human OSM was passed over the captured antibody surface at 256, 64, 16, 4 and 1 nM, with a buffer injection alone (i.e. 0 nM) used to double reference the binding curves. Regeneration was by using pulses of 3M 3M MgCl₂ or 100 mM phosphoric acid or using both reagents. The data was fitted to the 1:1 model inherent to the Biacore T100 analysis software. The run was carried out using HBS-EP (Biacore/GE-Healthcare BR-1006-69) and the analysis temperature was 25° C.

Assay [8] addresses T1, Human OSM. Description: BIAcore kinetics, transfection supernatant.
In assay [9] the target is T1, Human OSM. Put plainly: BIAcore kinetics, purified antibody.
Assay [10] concerns the target T2, Cynomolgus OSM. Description: BIAcore kinetics, purified antibody.
The target of assay [11] is T1, Human OSM. Description: cell-based or functional assay. This is another data set of the same source.
In assay [12] the target is T2, Cynomolgus OSM. Put plainly: cell-based or functional assay. The source holds these as a separate data set.
Assay [13] addresses T1, Human OSM. Put plainly: BIAcore kinetics, transfection supernatant. This is another data set of the same source.
Assay [14] has as its target T2, Cynomolgus OSM. Put plainly: BIAcore kinetics, transfection supernatant.
The target in assay [15] is T1, Human OSM. Put plainly: cell-based or functional assay. This is another data set of the same source.
Assay [16] concerns the target T2, Cynomolgus OSM. Put plainly: cell-based or functional assay. The source holds these as a separate data set.

Substitutions are numbered along the chain they refer to. Numbers in names are those of the source. Where “and” joins values, the source holds several entries; their conditions need not be identical. Equal entries are not always repeated. Where two headings read alike, the source gives them in different places.

B1: 3E3, murine anti-OSM mAb (antibody, V domains shown)
VH: EVQLVESGGDLVKPGGSLKLSCVPSGFTFSSYAMSWVRQTPEKRLEWVATISDGGSFTYYFANIQGRFTISRDNTKNNLYLQMNHLKSEDAGMYYCARDVGLTTFWYFDVWGTGTTVTVSS
VL: DIVLTQSPASLTISLGQRATISCRASKSVSPSGYDFMHWYQQKPGQPPKLLIKYASELESGVPGRFSGSGSGTDFTLNIHPVEEEDAATYFCQHSREFPFTFGGGTKLEIK
notes: Mouse hybridoma mAb; also called 3E3/A1; 3E3.A1
With B1, the IC50 in assay [1] was 0.19 µg/mL and 1.3 nM; in assay [2], 0.06 µg/mL and 0.4 nM. Further, the Kd in assay [3] came to 1.3 nM; in assay [4], 3.28 nM. Also, the “KB cell neutralisation assay, mean IC50” value in assay [5] is 0.054 µg/ml and 360 pM; in [6], 0.15 µg/ml and 1 nM.

B2: Pos 98 Met (antibody, V domains shown)
VH: EVQLVESGGGLVQPGGSLRLSCAASGFTFSSYAMSWVRQAPGKGLEWVATISDGGSFTYYLDNVRGRFTISRDNAKNSLYLQMNSLRAEDTAVYYCARDVGMTTFWYFDVWGRGTLVTVSS
VL: DIVMTQSPDSLAVSLGERATINCRASKSVSAAGYNFMHWYQQKPGQPPKVLIYYASNLESGVPDRFSGSGSGTDFTLTISSLQAEDVAVYYCLHSREFPFTFGGGTKVEIKR
notes: also called CDRH3 H98>M
Molecule B2 returned a Kd in assay [7] of 6.93 nM.

B3: Humanised 10G8 H1L1 (antibody, V domains shown)
VH: B2 VH with V2M, S31N, M102H
VL: DIVMTQSPDSLAVSLGERATINCRASKSVSAAGYNFMHWYQQKPGQPPKVLIYYASNLESGVPDRFSGSGSGTDFTLTISSLQAEDVAVYYCLHSREFPFTFGGGTKVEIK
For B3, the Kd in [8] was found to be 0.25 nM; in assay [9], 0.443 nM; in assay [10], 0.258 nM. Also, the off-rate (koff) in assay [8] turned out to be 9.99e-05 s⁻¹; in assay [9], 0.000166 s⁻¹; in assay [10], 0.00011 s⁻¹. Also, the kon in [8] is 400000 M⁻¹ s⁻¹; in assay [9], 375000 M⁻¹ s⁻¹; in assay [10] it was 428000 M⁻¹ s⁻¹. Also, the “KB cell neutralisation assay, mean IC50” value in assay [11] is 0.013 µg/ml and 83 pM; in [12] it was 0.01 µg/ml and 67 pM.

B4: Pos 99 His (antibody, V domains shown)
VH: B2 VH with M102H, T103H
VL: B2 VL
notes: also called CDRH3 T99>H
In the case of B4, binding in [7] was characterised by a dissociation constant (Kd) of 15.6 nM.

B5: Pos 100B Met (antibody, V domains shown)
VH: B2 VH with M102H, W106M
VL: B2 VL
notes: also called CDRH3 W100B>M
For the molecule B5, in [7], the Kd was 40.3 nM.

B6: Humanised 10G8 H0L1(IGKV4-1) (antibody, V domains shown)
VH: B2 VH with S31N, M102H
VL: B3 VL with Y54W, N57T, L58R
notes: built from the stated exchange of CDRL2; residue limits derived by me; Human gamma 1/kappa constant regions; also called H0L1(huCDRL2)
In assay [13], B6 gave a Kd of 1.37 nM, a koff of 0.000221 s⁻¹ and a kon of 161000 M⁻¹ s⁻¹. In [14], the Kd came to 1.41 nM, the koff was 0.000212 s⁻¹ and the kon stood at 150000 M⁻¹ s⁻¹. For the same molecule, the “KB cell neutralisation assay, mean IC50” value in assay [15] is 0.054 µg/ml and 360 pM. In addition, the “KB cell neutralisation assay, mean IC50” value in assay [16] was 0.081 µg/ml and 540 pM.

B7: Humanised 10G8 H2L4 (antibody, V domains shown)
VH: B2 VH with S31N, M102H, R113S
VL: B3 VL with A88V, K107N
On to B7, for which the figures for the Kd in assay [8], in [9] and in assay [10] were 0.226 nM, 0.356 nM and 0.205 nM, respectively. Further, the koff in assay [8] amounted to 0.000101 s⁻¹; in assay [9] it was 0.000135 s⁻¹; in [10], 9.01e-05 s⁻¹. Further, the kon in assay [8] is 448000 M⁻¹ s⁻¹; in [9], 380000 M⁻¹ s⁻¹; in [10], 441000 M⁻¹ s⁻¹. Moreover, the “KB cell neutralisation assay, mean IC50” value is 0.022 µg/ml and 147 pM in assay [11]; 0.016 µg/ml and 58 pM in [12].

B8: Pos 99 Met (antibody, V domains shown)
VH: B2 VH with M102H, T103M
VL: B2 VL
notes: also called CDRH3 T99>M
Regarding B8, binding in [7] was put at a Kd of 1.62 nM.

B9: Humanised 10G8 H0(IGHV3-23)L1(IGK4-1) (antibody, V domains shown)
VH: B2 VH with M102H
VL: B3 VL with Y54W, N57T, L58R
notes: built from the stated exchange of CDRL2; residue limits derived by me; also called H0 IGHV3_23 + L1 IGKV4_1; H0(huCDRH1)L1(huCDRL2)
In assay [13], B9 came in with a dissociation constant Kd of 1.56 nM, a koff of 0.000247 s⁻¹ and a kon of 159000 M⁻¹ s⁻¹. For the same molecule, in assay [14], the Kd came to 1.47 nM, the koff came out at 0.000223 s⁻¹ and the on-rate (kon) came to 152000 M⁻¹ s⁻¹. In addition, the “KB cell neutralisation assay, mean IC50” value in assay [15] was 0.077 µg/ml and 513 pM. In addition, the “KB cell neutralisation assay, mean IC50” value in assay [16] was 0.114 µg/ml and 760 pM.

B10: Pos 100B His (antibody, V domains shown)
VH: B2 VH with M102H, W106H
VL: B2 VL
notes: also called CDRH3 W100B>H
Consider B10, for which, in assay [7], the Kd was 36.2 nM.

Broadly, the IC50 is the concentration that gives 50% inhibition. Read a high IC50 as weaker potency. Broadly, the Kd is the equilibrium constant for the complex coming apart. Read a high Kd as a looser complex. The koff is the rate constant with which the complex falls apart. Lower therefore signals a long-lived complex. Broadly, the kon is the second-order rate constant of association.

The record behind these values is patent publication US20130251724A1 (GlaxoSmithKline, published 2013).
